From article PMC6000670 (2018)

Target: Hsp90 (Saccharomyces cerevisiae, UniProt P02829)
Assay: ITC

Sequence of Hsp90 (P02829 whole entry): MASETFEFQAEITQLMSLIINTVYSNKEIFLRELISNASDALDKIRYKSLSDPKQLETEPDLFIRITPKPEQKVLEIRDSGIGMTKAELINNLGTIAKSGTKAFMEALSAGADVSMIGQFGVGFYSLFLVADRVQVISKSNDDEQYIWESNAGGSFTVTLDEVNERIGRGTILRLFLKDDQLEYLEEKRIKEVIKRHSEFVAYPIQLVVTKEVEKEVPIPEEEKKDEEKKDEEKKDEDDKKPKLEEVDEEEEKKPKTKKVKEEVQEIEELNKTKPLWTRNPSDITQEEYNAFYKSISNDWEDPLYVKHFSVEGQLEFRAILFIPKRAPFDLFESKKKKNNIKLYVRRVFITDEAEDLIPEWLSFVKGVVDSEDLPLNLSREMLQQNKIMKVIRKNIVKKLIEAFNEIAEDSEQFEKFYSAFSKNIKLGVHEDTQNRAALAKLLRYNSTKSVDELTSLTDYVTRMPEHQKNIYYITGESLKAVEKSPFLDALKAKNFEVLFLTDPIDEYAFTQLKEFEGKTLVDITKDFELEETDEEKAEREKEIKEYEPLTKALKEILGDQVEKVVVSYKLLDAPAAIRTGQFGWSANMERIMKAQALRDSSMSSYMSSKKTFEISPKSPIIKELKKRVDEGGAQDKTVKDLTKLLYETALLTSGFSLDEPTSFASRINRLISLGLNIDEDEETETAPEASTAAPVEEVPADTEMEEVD

Kd: 320 nM
B1: Sti1 (protein)
chain: MSLTADEYKQQGNAAFTAKDYDKAIELFTKAIEVSETPNHVLYSNRSACYTSLKKFSDALNDANECVKINPSWSKGYNRLGAAHLGLGDLDEAESNYKKALELDASNKAAKEGLDQVHRTQQARQAQPDLGLTQLFADPNLIENLKKNPKTSEMMKDPQLVAKLIGYKQNPQAIGQDLFTDPRLMTIMATLMGVDLNMDDINQSNSMPKEPETSKSTEQKKDAEPQSDSTTSKENSSKAPQKEESKESEPMEVDEDDSKIEADKEKAEGNKFYKARQFDEAIEHYNKAWELHKDITYLNNRAAAEYEKGEYETAISTLNDAVEQGREMRADYKVISKSFARIGNAYHKLGDLKKTIEYYQKSLTEHRTADILTKLRNAEKELKKAEAEAYVNPEKAEEARLEGKEYFTKSDWPNAVKAYTEMIKRAPEDARGYSNRAAALAKLMSFPEAIADCNKAIEKDPNFVRAYIRKATAQIAVKEYASALETLDAARTKDAEVNNGSSAREIDQLYYKASQQRFQPGTSNETPEETYQRAMKDPEVAAIMQDPVMQSILQQAQQNPAALQEHMKNPEVFKKIQTLIAAGIIRTGR
modifications: Hsp90 in complex with LA1011 (1 mM)
